These results are taken from PMC4707092.

Where “and” joins values, the source holds several entries; their conditions need not be identical. Identical values can stand only once. Like-named read-outs stand apart in the source and are kept apart here.

Assay [1] has as its target C3b (UniProt P01024). The assay can be described thus: SPR. Background: Surface plasmon resonance follows binding to a sensor surface in real time, without labels.
Assay [2] concerns the target C3b C3b (Homo sapiens) (UniProt P01024). Conditions: cited from earlier work.
For assay [3] the target is unchanged. Conditions: cited from earlier work. The source holds these as a separate data set.

Sequence of C3b C3b (Homo sapiens) (P01024 566-670): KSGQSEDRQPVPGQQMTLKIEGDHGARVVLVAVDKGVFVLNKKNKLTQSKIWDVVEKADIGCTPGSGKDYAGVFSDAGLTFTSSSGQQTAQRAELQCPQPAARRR

For FHΔ10–15, in assay [1], the KD1 (1:2 binding model, first of two independent sites) came to 1.7 µM and the KD2 (1:2 binding model, second of two independent sites) amounted to 5.6 µM.

For the substance “Factor H (from UniProt P08603 19-1231) (natural protein)”, in assay [1], the Kd is 0.647 µM.

On to Factor H CCPs 1-4 (from UniProt P08603), for which the Kd in assay [2] was 11 µM and 14 µM.

“Factor H-like protein 1 (natural protein)” displayed a Kd in assay [1] of 1.52 µM.

As for “Factor H CCPs 19-20 (from UniProt P08603)”, the Kd in assay [3] was 5.4 µM and 4 µM.

As usually defined, the Kd is the constant that tells how readily two partners part at equilibrium.
